Patent publication US20220281936A1

Biological target: IL12 receptor on pre-activated mouse CD8+ T cells (mouse) (UniProt Q60837)
Assay: cell-based or functional assay

Sequence of IL12 receptor on pre-activated mouse CD8+ T cells (mouse) (Q60837 20-738, chain 1 of 2): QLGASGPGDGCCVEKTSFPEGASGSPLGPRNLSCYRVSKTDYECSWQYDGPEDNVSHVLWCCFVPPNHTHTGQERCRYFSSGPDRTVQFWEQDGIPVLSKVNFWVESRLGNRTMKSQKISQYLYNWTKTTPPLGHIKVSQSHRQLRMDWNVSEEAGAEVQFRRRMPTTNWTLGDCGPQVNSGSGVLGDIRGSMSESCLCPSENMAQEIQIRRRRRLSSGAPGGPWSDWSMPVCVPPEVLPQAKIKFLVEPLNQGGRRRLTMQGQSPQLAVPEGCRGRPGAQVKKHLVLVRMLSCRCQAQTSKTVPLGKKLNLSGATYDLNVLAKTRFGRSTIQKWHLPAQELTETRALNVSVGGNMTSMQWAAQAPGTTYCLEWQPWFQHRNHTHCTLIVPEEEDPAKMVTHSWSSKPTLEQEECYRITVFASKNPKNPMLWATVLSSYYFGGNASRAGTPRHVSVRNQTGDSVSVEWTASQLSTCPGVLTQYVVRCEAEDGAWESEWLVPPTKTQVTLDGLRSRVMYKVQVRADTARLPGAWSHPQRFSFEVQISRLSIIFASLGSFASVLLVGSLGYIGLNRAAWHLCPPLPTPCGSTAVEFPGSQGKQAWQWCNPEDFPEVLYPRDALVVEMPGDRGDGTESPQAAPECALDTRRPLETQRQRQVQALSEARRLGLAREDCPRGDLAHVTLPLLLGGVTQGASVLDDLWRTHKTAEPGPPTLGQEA
Sequence of IL12 receptor on pre-activated mouse CD8+ T cells (mouse) (chain, as listed by the source, chain 2 of 2): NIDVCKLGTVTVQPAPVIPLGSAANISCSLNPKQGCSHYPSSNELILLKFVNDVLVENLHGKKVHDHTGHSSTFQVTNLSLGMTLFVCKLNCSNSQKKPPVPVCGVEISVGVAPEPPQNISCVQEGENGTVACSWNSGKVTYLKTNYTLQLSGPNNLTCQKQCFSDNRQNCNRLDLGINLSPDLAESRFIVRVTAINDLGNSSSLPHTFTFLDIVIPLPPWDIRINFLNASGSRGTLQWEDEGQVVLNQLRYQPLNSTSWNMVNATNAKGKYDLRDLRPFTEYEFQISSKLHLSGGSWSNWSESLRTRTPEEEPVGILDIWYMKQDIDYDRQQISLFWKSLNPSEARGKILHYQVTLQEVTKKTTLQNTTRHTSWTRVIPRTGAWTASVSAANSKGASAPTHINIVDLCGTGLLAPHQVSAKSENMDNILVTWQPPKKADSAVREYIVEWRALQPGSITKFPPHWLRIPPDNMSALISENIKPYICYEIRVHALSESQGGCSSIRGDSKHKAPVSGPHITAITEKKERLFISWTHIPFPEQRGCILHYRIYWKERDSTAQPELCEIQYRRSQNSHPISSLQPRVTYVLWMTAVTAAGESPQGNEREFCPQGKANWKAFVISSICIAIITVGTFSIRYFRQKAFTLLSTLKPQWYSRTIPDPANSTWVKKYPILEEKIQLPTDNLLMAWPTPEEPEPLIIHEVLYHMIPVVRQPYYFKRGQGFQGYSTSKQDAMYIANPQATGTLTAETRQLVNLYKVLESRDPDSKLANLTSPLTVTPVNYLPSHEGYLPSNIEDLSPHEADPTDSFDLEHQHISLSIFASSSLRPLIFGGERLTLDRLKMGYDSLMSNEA

IL12Rβ1-(G3S)11-IL12
EC50 of STAT4 phosphorylation in pre-activated mouse CD8+ T cells, fold against unmodified IL12: 80 fold
